± gives the uncertainty stated by the source.

This data set in a line: amyloid nucleation score (Sup35N fusion, yeast selection) (log enrichment); library NNK2; higher = more nucleation; inactive = no reads after selection. Put shortly:
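In psi-negative yeast, Sup35N fusions carrying peptides of 20 random codons were induced with 100 μM copper sulfate for 24 hours. The cells then grew 7 days at 30°C on medium lacking adenine and uracil, and plasmid inserts from input and output were Illumina-sequenced, excluding sequences with under 100 input reads. Nucleation score is the DiMSum log enrichment of output over input reads, centred on the mode score of non-aggregating sequences.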
For the substance LADSAYTPY, the amyloid nucleation score was -0.727 ± 0.54.

RTLYGALMIVWVS: the amyloid nucleation score was 0.004 ± 1.1.

Regarding NDGAIGIVAPGEHLLVRDVK, the amyloid nucleation score was -0.573 ± 0.41.

Substance GEHRQGCYFGAIVFAILMFS gave an amyloid nucleation score of 0.007 ± 0.55.

On to IRYFR, for which the amyloid nucleation score worked out at 0.371 ± 0.13.

MGCDGVSVLRWCTHIELGME had an amyloid nucleation score of -0.782 ± 0.31.

Take ERSIARSFRLAADFCSYSRR: the amyloid nucleation score entry was “inactive”.

Substance FWVALYFSTCFPHDMLSSGP registered an amyloid nucleation score of -0.734 ± 0.54.

Substance EVSNRCRRLSTRRVHSVLVG had an amyloid nucleation score of 1.13 ± 0.25.

Take TRGCFAVSSKYMLSYVGLNR: the amyloid nucleation score is -0.021 ± 0.21.

As for YDIVVNYLNHHQR, the amyloid nucleation score stood at 4.88 ± 0.11.

With NMRHI, the amyloid nucleation score was 0.75 ± 0.41.

The substance LCISCNVGLGSIKVRNNAFA showed an amyloid nucleation score of 6.12 ± 0.042.

Take SSYESLCKIYLNFCQTD: the amyloid nucleation score is 6.761 ± 0.059.

Turning to TRAPGRDFVGEGEACALDET, the amyloid nucleation score was -0.799 ± 0.54.

As for GAELPKYESRLPFLSAGLRQ, the amyloid nucleation score was -0.048 ± 0.53.

VLWLADLSR came in with an amyloid nucleation score of 0.113 ± 0.8.

For the substance AYMVDLYYTVWPGIVLLYM, the amyloid nucleation score was 0.152 ± 0.44.

For the substance SLDFAFRFFSICVICGQNAR, the amyloid nucleation score stood at 4.76 ± 0.082.

In turn, DNDYIYRYPWP registered an amyloid nucleation score of -0.288 ± 1.1.

FVRNKLMADFFWLGFYN yielded an amyloid nucleation score of -1.79 ± 0.63.

QNACH yielded an amyloid nucleation score of -0.011 ± 1.1.

Turning to GFFTPPRVRNNTSEGDVK, the amyloid nucleation score is -0.418 ± 1.1.

In turn, YRVVKPCWLHFGDLIVWTWC registered an amyloid nucleation score of 0.351 ± 0.35.

Turning to HETLQASIFVLLIHTKYHES, the amyloid nucleation score is -1.58 ± 1.

NTSQDG: the amyloid nucleation score was 5.15 ± 0.087.

With VQNLMYIVISPFDRYGRCGR, the amyloid nucleation score is 9.735 ± 0.048.

Substance RLLSGCLFGGSRA had an amyloid nucleation score of -0.623 ± 0.76.

On to LRFYERDILSILLFLMMMFV, for which the amyloid nucleation score is -1.07 ± 0.63.

Turning to INLRMCGFYTSFDLNWRRKW, the amyloid nucleation score was found to be 4.981 ± 0.049.

Turning to MSYVLMVFASPIMYVTHPIA, the amyloid nucleation score was found to be 1.89 ± 0.2.

In the case of DLRHASVVVNRWILCLLGHI, the amyloid nucleation score was 0.106 ± 1.

Regarding AHHCVGYCSHIFQDPRGRVM, the amyloid nucleation score was found to be 0.22 ± 0.44.

HSFIGSRIVSFGFDVRGRWA had an amyloid nucleation score of 4.91 ± 0.059.

Substance TFGTSFKYFMSWLIDRCCYL registered an amyloid nucleation score of -0.836 ± 1.1.

WASFW: the amyloid nucleation score was -0.725 ± 0.45.

YHMGDGLDVWGRDRSG registered an amyloid nucleation score of 0.901 ± 0.27.

FNDRKYESCDSDDC returned an amyloid nucleation score of -1.99 ± 0.62.

Substance SFRDDICWVRWGSL returned an amyloid nucleation score of 0.251 ± 0.23.

In the case of IRWNDSYKKECHIFFWRNRE, the amyloid nucleation score result is “inactive”.

In the case of EHLCPYF, the amyloid nucleation score was determined as 0.667 ± 0.46.

Regarding YRCLYGRKYVFRIEPIGIVH, the amyloid nucleation score was -0.676 ± 0.35.

In the case of GFHIGDVCNYGVVFSSVARL, the amyloid nucleation score came out at 5.863 ± 0.05.

In the case of GFHSCG, the amyloid nucleation score is 4.85 ± 0.067.

CSVSGNLQISFYGNMPINSF showed an amyloid nucleation score of -0.924 ± 0.78.

In the case of DVFVDMGMLTPKRCRARRGV, the amyloid nucleation score was found to be 0.883 ± 0.34.

Turning to KFPYVHLVFLARIYSF, the amyloid nucleation score is -0.536 ± 1.1.

For the substance HNGVCSSRARVSLWAGRCWK, the amyloid nucleation score was determined as 0.742 ± 0.22.

In turn, FRTTALLRFKRWDYGVIRNR had an amyloid nucleation score of 0.021 ± 0.46.

LVSVLGSTFLGSAWDTEGWY came in with an amyloid nucleation score of -0.579 ± 0.5.

For the substance HVTRVSVLQVLELHSTMTGV, the amyloid nucleation score worked out at 4.09 ± 0.09.

In the case of DYFFPWENSGCIRRSLTVG, the amyloid nucleation score was -1.35 ± 0.41.

Substance GAVNFYHT showed an amyloid nucleation score of 4.06 ± 0.044.

Take VSFSSNHGFAMVRLSWSQKR: the amyloid nucleation score amounted to 5.49 ± 0.058.

ALAACSNSRG displayed an amyloid nucleation score of 0.416 ± 0.54.

Substance ILYGCLLPCLHLRGHPLVLK gave an amyloid nucleation score of 0.42 ± 0.33.

Take SLWNIVRCRVENDSSGTQGF: the amyloid nucleation score was -0.414 ± 0.5.

The substance VKFNDFTHKNWY had an amyloid nucleation score of 0.058 ± 0.74.

For NILTRYS, the amyloid nucleation score was -0.013 ± 0.31.

Regarding PFLQLCREAIFCLSHDGMLK, the amyloid nucleation score is -0.575 ± 0.28.

The substance FSSSFVVWALYPVTFHLTRS came in with an amyloid nucleation score of 0.112 ± 0.4.

On to KGSGRSQLSSIVCVFFGQTV, for which the amyloid nucleation score is -0.292 ± 0.49.

The substance HYRIWVMHMWDCYWTTNFHG had an amyloid nucleation score of -0.393 ± 0.63.

VEALSISMQLYYRSLVAG yielded an amyloid nucleation score of -0.066 ± 1.

VNNGSMFSRGDWCVVLYPTW yielded an amyloid nucleation score of 3.45 ± 0.077.

For LLGTFYTS, the amyloid nucleation score was -1 ± 1.1.

YYFNVLFSCYEEWFMFSSTS: the amyloid nucleation score result is “inactive”.

In turn, TEGRVDPLCDERAILMVFDV gave an amyloid nucleation score of 0.768 ± 0.5.

For RYFDDWVNSRTVKCGWDWYA, the amyloid nucleation score worked out at 0.641 ± 0.17.

KPAERLFKCRSTE yielded an amyloid nucleation score of 0.014 ± 0.49.

The substance SMKHRHSRMVTFGVLV had an amyloid nucleation score of 0.163 ± 0.28.

Turning to SKYLCRICDPMHLNLFCRWQ, the amyloid nucleation score worked out at 4.11 ± 0.059.

Substance TFIAMSQALMTVYIGALLQW came in with an amyloid nucleation score of 3.57 ± 0.061.

VYAVDTTW: the amyloid nucleation score was determined as 0.237 ± 0.29.

In turn, IGSVGTPWE had an amyloid nucleation score of -0.042 ± 0.45.

LAISHMLSKCVKKIDTL gave an amyloid nucleation score of 1.56 ± 0.2.

For the substance KRSTNWKDC, the amyloid nucleation score is -1.07 ± 0.64.

For the substance MRYRIICNFCHDVRKESLLK, the amyloid nucleation score was -0.246 ± 0.8.

In turn, LIQFDTISSLYP returned an amyloid nucleation score of -0.271 ± 0.63.

Consider NKLTV, for which the amyloid nucleation score is -0.381 ± 0.79.

As for CCAQWSNFACSV, the amyloid nucleation score amounted to 5.392 ± 0.038.

Substance DSVVLGGYGGFAAHKTRVIF came in with an amyloid nucleation score of 0.213 ± 0.43.

For the substance VSFATRRSSNNILTGW, the amyloid nucleation score is -0.557 ± 1.1.

The substance SVVEEKIGEFTWSWDTDSAN returned an amyloid nucleation score of 0.568 ± 0.66.

As to CERLNAPHLHQVRIPKRYNM, the amyloid nucleation score was 0.306 ± 0.64.

Consider RRDHHMPPITPGCFRLYWRI, for which the amyloid nucleation score amounted to 0.237 ± 1.

On to CPFVATGDP, for which the amyloid nucleation score was -0.849 ± 1.1.

Substance DFVDGVPL returned an amyloid nucleation score of 0.415 ± 0.8.

Substance RYSFSLMGFDSKGNKVGIMS yielded an amyloid nucleation score of 3.65 ± 0.06.

DMERLAGYLQVRSKGMMRHT registered an amyloid nucleation score of 0.155 ± 0.42.

In the case of NVLLKNLESPIFYRDMTTL, the amyloid nucleation score is -0.252 ± 0.76.

For MKVLGNCISQIVNMDVWLLF, the amyloid nucleation score is -1.73 ± 0.47.

Consider IKCWAPLNCSGGLVGHDQAV, for which the amyloid nucleation score is -0.562 ± 0.44.

WCGYCLTFLFPAQKQEAVLR gave an amyloid nucleation score of 0.218 ± 0.35.

Substance LPLILV came in with an amyloid nucleation score of 0.356 ± 0.8.

Substance FTTPSRS registered an amyloid nucleation score of 0.623 ± 0.53.

Turning to ENATFLATCI, the amyloid nucleation score is -0.217 ± 0.79.

The substance VWSPYKTV registered an amyloid nucleation score of -0.101 ± 1.1.

As to HWDLIGGVL, the amyloid nucleation score was -0.176 ± 1.1.

As for ILVEGET, the amyloid nucleation score was -0.263 ± 0.33.

For GKCFIWCSMGIWLGVCDQSA, the amyloid nucleation score came out at 3.59 ± 0.089.

The substance RGVLVEFYGAMENISWSTYW displayed an amyloid nucleation score of -0.497 ± 0.76.

Take FSMPLLALAFLL: the amyloid nucleation score entry is “inactive”.

VHCSVGNINKDVSCTVVRP had an amyloid nucleation score of 0.892 ± 0.47.

In turn, KQGKRSTAHRSIVPLSFRH registered an amyloid nucleation score of 1.58 ± 0.14.

For the substance CALSVVTIHFCHTRAPGTPL, the amyloid nucleation score is 3.65 ± 0.082.

Regarding EEREFSAASPEAMELR, the amyloid nucleation score entry was “inactive”.

The substance IADQTMISRYSRS yielded an amyloid nucleation score of 5.89 ± 0.084.

ADLSRRLGMFVVLCLGGWAW showed an amyloid nucleation score of -0.326 ± 0.63.

In the case of FFFMTKNFKIFTSALDVPSE, the amyloid nucleation score is -1.14 ± 1.1.

In turn, VRSGTLFARTKWEESSCHLF had an amyloid nucleation score of 0.641 ± 0.4.

For TPTWESNQVL, the amyloid nucleation score stood at 0.502 ± 0.65.

VRITVSSSLALWLVWLSHYR yielded an amyloid nucleation score of -0.167 ± 0.27.

In the case of VKGHKRESSWNWRSDGNMWA, the amyloid nucleation score is -0.111 ± 0.61.

For KFCCT, the amyloid nucleation score was 3.47 ± 0.1.

As for VGWKTGDRPSEMSSSWDLNG, the amyloid nucleation score was -0.093 ± 0.37.

As to VGTTNQYDEPTTGLSHC, the amyloid nucleation score stood at 0.953 ± 0.32.

Take FSVRRLVDHFSNSMEDPHLP: the amyloid nucleation score was -0.342 ± 1.

With SYRNLDKTIRSDKLQVNLGI, the amyloid nucleation score is -1.57 ± 1.1.

For PHLFFDTFV, the amyloid nucleation score is 3.98 ± 0.087.

VSYDSNAILTFVNSYSRRRL: the amyloid nucleation score came to 1.48 ± 0.19.

In turn, YVRGSDGSKKPWVYSAVGIF gave an amyloid nucleation score of -0.793 ± 1.1.

Consider RTIAVSQWLASHGTVLVWPD, for which the amyloid nucleation score result was “inactive”.

Regarding SMHGSNVIWESFILRQEHDV, the amyloid nucleation score was -0.268 ± 0.31.

Substance FINKIKVRLNLMSGSANRLL had an amyloid nucleation score of 4.57 ± 0.11.

With ISGVVFSTTRLLQFDGCRVG, the amyloid nucleation score was 1.31 ± 0.52.

VKHIGGISARVYKNCAASAV displayed an amyloid nucleation score of -0.74 ± 0.63.

For the substance NKVSEFYDGVHFC, the amyloid nucleation score is -0.235 ± 1.1.

RFWDQACQAFMSSMVEGPVD displayed an amyloid nucleation score of -0.548 ± 1.1.

In the case of VHICRTNDG, the amyloid nucleation score was 0.632 ± 0.44.

On to EGIILFRKDRELTGGRLTNV, for which the amyloid nucleation score was -0.145 ± 1.1.

The substance VDISNFTVCRHAIKDLTFRV displayed an amyloid nucleation score of 0.149 ± 0.41.

As for KSCSMMFILWVTAGMDRWGH, the amyloid nucleation score was found to be 6.25 ± 0.09.

ITLSSS returned an amyloid nucleation score of 0.853 ± 0.2.

Consider WERMFRPHIFVLFSSGQLSS, for which the amyloid nucleation score was found to be 5.01 ± 0.052.

The substance VFVSWILFTVSPFIIRYRVN had an amyloid nucleation score of -1.72 ± 0.75.

On to GFLGCESREKEECSIKERLC, for which the amyloid nucleation score was -0.515 ± 1.

The substance VSVGWRVAVWWILKWEHLSR came in with an amyloid nucleation score of 9.541 ± 0.034.

RCELSRRGTSLRTWRWARNG yielded an amyloid nucleation score of 1.46 ± 0.17.

The substance KCVSRISSGR came in with an amyloid nucleation score of 1.03 ± 0.66.

CKSSARLIDYTS returned an amyloid nucleation score of -0.682 ± 0.45.
